Laboratory results from patent US20040005550A1, “Methods and compositions useful for targeting activated vitronectin receptor alphavbeta3” (The Scripps Research Institute, priority 1998, published 2004).

Columns and labels:
[1] = target: T1, αvβ3 expressed in CHO cells (Homo sapiens, UniProt P05106+P06756); assay: Flow cytometry ligand binding to αvβ3-CHO cells; conditions: for Bmax: arbitrary fluorescence units
T1 construct: cDNAs encoding full-length human αv and β3 were subcloned into pcDNA3 and pCDM8; expressed in transfected cells
Method: Binding of aPB, WOW-1 Fab and FITC-fibrinogen to cells was assessed by flow cytometry. Typically, cells were cultured overnight in low serum medium (e.g., 0.5% fetal bovine serum), resuspended in incubation buffer at 1-1.5×10^7 cells/ml, and 4-6×10^5 cells were incubated with one of these ligands for 30 min at room temperature in a final volume of 50 μl. […] In some experiments, ligand binding and αvβ3 expression were measured simultaneously by incubation of cells with ligands in the presence of biotin-SSA6 (7 μg/ml), a non-function-blocking anti-β3 monoclonal antibody (Abrams, C., Deng, J., Steiner, B., and Shattil, S. J. (1994) J. Biol. Chem. 269, 18781-18788). After 30 min at room temperature, cells were washed and incubated with phycoerythrin-streptavidin (1:25 final dilution; Molecular Probes) for 20 min on ice. In the case of WOW-1 Fab, an Alexa-conjugated anti-(His)6 monoclonal antibody (Accurate Chemical and Scientific Corp., Westbury, N.Y.) was added at this stage (50 μg/ml). Cells were washed and resuspended in 0.5 ml incubation buffer containing 2 μg/ml propidium iodide (Sigma, St. Louis, Mo.). Ligand binding (FL1 channel) was analyzed immediately on the gated subset of live cells (propidium iodide-negative, FL3) that was strongly positive for αvβ3 expression (FL2). Binding isotherms were subjected to non-linear, least squares regression analysis using an equation for one-site binding (Prism 2.0 software; GraphPad Software, San Diego, Calif.). Two-tailed P values for paired samples were obtained by Student's t test.
In order to document and study the significance of affinity modulation of αvβ3, a monovalent reporter ligand was developed analogous to the activation-dependent anti-αIIbβ3 antibody, PAC1 Fab. Preliminary binding studies were conducted with the new antibody, designated WOW-1 Fab, using purified integrins in the presence of 50 μM MnCl2, which activates integrins by a direct effect on the extracellular domain (Bazzoni, G., and Hemler, M. E. (1998) Trends Biochem. Sci. 23, 30-34). […] To determine if WOW-1 Fab reacted preferentially with activated αvβ3 in cells, Fab binding was compared with that of multivalent penton base using CHO cells stably-transfected with human αvβ3 (αvβ3-CHO cells).

αvβ3-CHO cells = assay: Cell adhesion assay on immobilized penton base; format: cell-based
Method: Immulon-2 microtiter wells (Dynex Laboratories, Chantilly, Va.) were coated with unlabeled penton base (1-100 ng/well) overnight at 4° C., followed by blocking with 20 mg/ml BSA. CHO cells stably expressing αvβ3 were labeled with BCECF-AM (Molecular Probes, Eugene, Oreg.), and cell adhesion to the immobilized penton base was quantitated by cytofluorimetry at 485/530 nm (Hato, T., Pampori, N., and Shattil, S. J. (1998) J. Cell Biol. 141(7), 1685-1695).
In order to determine whether changes in receptor affinity affect the adhesive function of αvβ3, the adhesion of αvβ3-CHO cells to immobilized penton base was quantitated. Adhesion was dependent on the coating concentration of penton base and was half-maximal at 30-40 ng/well (FIG. 7). Activation of αvβ3 by AP5 led to a 7-fold leftward shift in the dose-response curve such that half-maximal adhesion now occurred at approximately 5 ng of penton base/well. Treatment of the cells with 1 mM MnCl2 caused an even further shift in the dose-response curve, either because it induced a more profound effect on αvβ3 or it activated additional αv integrins (FIG. 7). […] Thus, affinity modulation of αvβ3 promotes both cell adhesion and post-ligand binding responses, such as cell spreading.

[2] = test system: resting or thrombin-stimulated human platelets; assay: Flow cytometry ligand binding to platelets

T1 sequence (P06756 31-889 limits assumed): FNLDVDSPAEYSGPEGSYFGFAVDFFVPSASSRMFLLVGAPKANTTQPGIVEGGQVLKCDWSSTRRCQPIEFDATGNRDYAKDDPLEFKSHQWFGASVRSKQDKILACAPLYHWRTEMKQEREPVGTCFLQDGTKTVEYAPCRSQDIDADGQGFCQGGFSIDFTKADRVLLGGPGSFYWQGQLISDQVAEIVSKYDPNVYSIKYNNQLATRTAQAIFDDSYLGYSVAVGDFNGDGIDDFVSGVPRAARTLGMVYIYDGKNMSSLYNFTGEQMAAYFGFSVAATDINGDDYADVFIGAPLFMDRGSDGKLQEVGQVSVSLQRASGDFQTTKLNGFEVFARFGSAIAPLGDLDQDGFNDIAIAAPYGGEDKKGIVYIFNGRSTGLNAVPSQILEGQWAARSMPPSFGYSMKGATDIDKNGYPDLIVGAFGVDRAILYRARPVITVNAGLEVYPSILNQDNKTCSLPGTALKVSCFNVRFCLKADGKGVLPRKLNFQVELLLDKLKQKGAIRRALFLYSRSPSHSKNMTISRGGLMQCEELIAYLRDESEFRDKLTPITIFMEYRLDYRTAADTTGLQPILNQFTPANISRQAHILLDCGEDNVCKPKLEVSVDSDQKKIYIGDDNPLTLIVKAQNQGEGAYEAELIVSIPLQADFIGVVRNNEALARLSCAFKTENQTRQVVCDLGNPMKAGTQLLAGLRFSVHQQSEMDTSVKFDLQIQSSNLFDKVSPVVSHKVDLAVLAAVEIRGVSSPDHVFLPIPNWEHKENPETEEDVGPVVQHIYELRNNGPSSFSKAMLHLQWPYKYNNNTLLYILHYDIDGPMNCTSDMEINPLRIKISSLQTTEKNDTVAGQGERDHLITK
T1 sequence (P06756 891-1048 partner limits assumed): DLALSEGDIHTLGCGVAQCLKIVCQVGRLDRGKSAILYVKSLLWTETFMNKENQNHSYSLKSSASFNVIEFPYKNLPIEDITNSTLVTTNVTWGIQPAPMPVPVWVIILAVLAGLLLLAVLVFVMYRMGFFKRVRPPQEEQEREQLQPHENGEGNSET
T1 sequence (P05106 27-788): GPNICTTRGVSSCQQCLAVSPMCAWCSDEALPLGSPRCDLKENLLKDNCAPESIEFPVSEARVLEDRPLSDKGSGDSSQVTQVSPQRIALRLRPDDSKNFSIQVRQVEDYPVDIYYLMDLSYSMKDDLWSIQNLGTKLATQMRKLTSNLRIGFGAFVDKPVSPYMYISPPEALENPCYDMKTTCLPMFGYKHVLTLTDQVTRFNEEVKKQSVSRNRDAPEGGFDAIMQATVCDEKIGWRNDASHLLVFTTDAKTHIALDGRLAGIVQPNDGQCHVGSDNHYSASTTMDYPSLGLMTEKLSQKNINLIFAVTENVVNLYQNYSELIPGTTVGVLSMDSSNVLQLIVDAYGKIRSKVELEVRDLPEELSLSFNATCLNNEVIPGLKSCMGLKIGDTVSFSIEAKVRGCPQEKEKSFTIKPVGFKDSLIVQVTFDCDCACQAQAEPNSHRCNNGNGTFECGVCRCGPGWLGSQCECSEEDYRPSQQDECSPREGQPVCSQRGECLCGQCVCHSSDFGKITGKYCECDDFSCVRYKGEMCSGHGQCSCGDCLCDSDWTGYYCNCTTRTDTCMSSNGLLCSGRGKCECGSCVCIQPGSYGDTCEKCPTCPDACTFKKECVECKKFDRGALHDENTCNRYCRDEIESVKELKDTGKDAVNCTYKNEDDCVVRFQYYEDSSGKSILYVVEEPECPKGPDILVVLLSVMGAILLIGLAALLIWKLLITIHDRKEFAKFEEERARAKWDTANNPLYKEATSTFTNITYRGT

Row | Substance | Bmax ([1]; Activating antibody AP5) [units] | Bmax ([1]; No Treatment) [units] | affinity/avidity of αvβ3 for ligand, fold lower than that for aPB ([1]; unstimulated αvβ3-CHO cells) | coating concentration at half-maximal adhesion (αvβ3-CHO cells; no additive, 90 min at 37° C.) | coating amount at half-maximal adhesion (αvβ3-CHO cells; αvβ3 activated by AP5) | aPB binding on a per receptor basis (mfi of aPB binding divided by mfi of SSA6 binding) ([1]; AP5-treated αvβ3-CHO cells, 75 nM aPB) | binding to platelets [2]
1 | Fibrinogen: Purified human fibrinogen labeled with FITC | 77 ± 6 | 126 ± 74 | approximately 15 fold |  |  |  | 
2 | Penton Base: Recombinant multivalent penton base coat protein from adenovirus type 2, baculovirus-expressed | 69 ± 5 | 80 ± 4 |  | 30-40 ng/well | approximately 5 ng of penton base/well |  | 
3 | aPB: Penton base conjugated to Alexa-488 |  |  |  |  |  | 0.034±0.002 | neither aPB nor WOW-1 Fab bound detectably
